Experimental data: the supplement of paper PMC10065799, “High-throughput profiling of sequence recognition by tyrosine kinases and SH2 domains using bacterial peptide display” (eLife, 2023)

How the values were obtained:
SHP2-C SH2 = experiment: SH2 binding enrichment of the phosphorylated peptide, bacterial display (enrichment ratio); higher = better substrate or ligand; peptides without Tyr show the background
c-Src SH2 = experiment: as above
Grb2 SH2 = Grb2 SH2 (UniProt P62993); experiment: as above
MERTK = MERTK (UniProt Q12866); experiment: phosphorylation enrichment, bacterial display (enrichment ratio); higher = better substrate or ligand; peptides without Tyr show the background
EPHB1 = EPHB1 (UniProt P54762); experiment: as above
Jak2 = Jak2 (UniProt O60674); experiment: as above
c-Src = experiment: as above
FGFR1 = FGFR1 (UniProt P11362); experiment: as above
c-Abl (mouse) = experiment: as above
Hck = Hck (UniProt P08631); experiment: as above
AncSZ = experiment: as above
EPHB2 = EPHB2 (UniProt P29323); experiment: as above
FGFR3 = FGFR3 (UniProt P22607); experiment: as above
Fer (mouse) = experiment: as above
Fyn = Fyn (UniProt P06241); experiment: as above
Fes = Fes (UniProt P07332); experiment: as above
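Wherever SH2 binding enrichment of the phosphorylated peptide, bacterial display is given: peptide library displayed on the E. coli surface as eCPX fusions, selected cells deep-sequenced, score is each peptide's frequency after selection divided by its frequency in the input.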
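Wherever phosphorylation enrichment, bacterial display is given: 11-residue human phosphosite peptides and single-mutation variants displayed on the E. coli surface, counted by deep sequencing, each peptide's frequency after selection divided by its frequency in the unselected input library; frequency after pTyr selection over input frequency; kinase dosed for 20-30% of maximal phosphorylation in three min.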

Sequence of MERTK (Q12866 whole entry, looked up): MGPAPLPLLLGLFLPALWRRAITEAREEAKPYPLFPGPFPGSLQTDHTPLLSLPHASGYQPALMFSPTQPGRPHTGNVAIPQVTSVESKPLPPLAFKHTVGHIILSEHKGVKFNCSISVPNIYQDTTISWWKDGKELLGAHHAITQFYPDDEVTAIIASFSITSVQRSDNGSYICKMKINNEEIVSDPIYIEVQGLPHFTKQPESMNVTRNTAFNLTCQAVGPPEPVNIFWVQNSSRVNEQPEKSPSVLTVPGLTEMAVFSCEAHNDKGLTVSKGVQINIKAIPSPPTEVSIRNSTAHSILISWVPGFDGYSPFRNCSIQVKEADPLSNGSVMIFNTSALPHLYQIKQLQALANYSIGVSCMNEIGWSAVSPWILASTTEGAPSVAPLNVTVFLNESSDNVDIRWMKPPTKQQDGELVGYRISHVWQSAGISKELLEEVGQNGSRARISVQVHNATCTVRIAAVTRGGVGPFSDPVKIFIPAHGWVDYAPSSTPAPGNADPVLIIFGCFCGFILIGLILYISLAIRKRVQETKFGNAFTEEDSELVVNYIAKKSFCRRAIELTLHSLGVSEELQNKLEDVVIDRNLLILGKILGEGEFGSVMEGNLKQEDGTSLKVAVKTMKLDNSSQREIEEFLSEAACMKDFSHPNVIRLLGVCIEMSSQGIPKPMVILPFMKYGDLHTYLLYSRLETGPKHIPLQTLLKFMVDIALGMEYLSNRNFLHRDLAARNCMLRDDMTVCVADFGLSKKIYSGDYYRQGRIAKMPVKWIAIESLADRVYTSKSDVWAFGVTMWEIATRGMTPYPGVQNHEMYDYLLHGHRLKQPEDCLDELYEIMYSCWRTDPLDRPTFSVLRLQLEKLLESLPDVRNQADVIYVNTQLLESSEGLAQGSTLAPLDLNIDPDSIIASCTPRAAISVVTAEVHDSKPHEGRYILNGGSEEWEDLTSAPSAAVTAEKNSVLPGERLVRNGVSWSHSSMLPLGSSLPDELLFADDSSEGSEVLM
Sequence of EPHB1 (P54762 whole entry, looked up): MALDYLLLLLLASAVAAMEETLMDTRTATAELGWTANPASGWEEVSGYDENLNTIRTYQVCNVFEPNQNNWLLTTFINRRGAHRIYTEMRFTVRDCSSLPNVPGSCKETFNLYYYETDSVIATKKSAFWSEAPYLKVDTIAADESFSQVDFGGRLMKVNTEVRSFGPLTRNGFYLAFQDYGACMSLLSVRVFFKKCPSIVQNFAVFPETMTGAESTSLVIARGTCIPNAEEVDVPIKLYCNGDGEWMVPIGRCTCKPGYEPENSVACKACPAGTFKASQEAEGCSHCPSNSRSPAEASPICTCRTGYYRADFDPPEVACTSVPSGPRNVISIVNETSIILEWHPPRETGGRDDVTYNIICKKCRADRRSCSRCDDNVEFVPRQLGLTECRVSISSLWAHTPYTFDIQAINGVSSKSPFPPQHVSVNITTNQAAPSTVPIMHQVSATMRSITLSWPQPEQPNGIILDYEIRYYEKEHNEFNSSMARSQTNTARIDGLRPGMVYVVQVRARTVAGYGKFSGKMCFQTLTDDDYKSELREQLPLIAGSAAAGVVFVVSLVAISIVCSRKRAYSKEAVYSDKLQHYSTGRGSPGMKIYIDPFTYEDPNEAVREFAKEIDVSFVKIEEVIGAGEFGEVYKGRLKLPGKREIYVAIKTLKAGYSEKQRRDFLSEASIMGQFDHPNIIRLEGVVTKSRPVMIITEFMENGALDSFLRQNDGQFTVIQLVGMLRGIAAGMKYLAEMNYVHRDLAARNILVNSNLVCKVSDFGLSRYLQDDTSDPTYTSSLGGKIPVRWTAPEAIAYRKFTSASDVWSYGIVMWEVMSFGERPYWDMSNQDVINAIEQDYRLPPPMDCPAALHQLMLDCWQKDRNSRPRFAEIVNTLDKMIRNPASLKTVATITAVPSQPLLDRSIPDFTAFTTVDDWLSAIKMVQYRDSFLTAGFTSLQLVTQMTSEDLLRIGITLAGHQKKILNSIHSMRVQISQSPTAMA
Sequence of Fyn (P06241 whole entry, looked up): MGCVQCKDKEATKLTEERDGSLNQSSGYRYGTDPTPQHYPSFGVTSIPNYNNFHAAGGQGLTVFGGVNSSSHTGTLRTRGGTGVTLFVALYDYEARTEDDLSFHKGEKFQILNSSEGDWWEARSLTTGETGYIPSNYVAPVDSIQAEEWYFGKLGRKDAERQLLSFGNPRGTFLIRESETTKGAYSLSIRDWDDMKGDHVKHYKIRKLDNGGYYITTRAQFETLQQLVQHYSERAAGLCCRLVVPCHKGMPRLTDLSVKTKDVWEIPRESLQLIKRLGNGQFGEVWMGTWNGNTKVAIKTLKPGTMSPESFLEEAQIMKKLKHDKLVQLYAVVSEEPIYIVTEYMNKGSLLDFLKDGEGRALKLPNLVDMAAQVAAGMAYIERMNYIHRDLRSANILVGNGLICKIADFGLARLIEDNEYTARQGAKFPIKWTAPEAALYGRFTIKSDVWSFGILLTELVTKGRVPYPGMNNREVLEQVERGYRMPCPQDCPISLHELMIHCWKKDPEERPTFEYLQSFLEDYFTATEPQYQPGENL
Sequence of Jak2 (O60674 whole entry, looked up): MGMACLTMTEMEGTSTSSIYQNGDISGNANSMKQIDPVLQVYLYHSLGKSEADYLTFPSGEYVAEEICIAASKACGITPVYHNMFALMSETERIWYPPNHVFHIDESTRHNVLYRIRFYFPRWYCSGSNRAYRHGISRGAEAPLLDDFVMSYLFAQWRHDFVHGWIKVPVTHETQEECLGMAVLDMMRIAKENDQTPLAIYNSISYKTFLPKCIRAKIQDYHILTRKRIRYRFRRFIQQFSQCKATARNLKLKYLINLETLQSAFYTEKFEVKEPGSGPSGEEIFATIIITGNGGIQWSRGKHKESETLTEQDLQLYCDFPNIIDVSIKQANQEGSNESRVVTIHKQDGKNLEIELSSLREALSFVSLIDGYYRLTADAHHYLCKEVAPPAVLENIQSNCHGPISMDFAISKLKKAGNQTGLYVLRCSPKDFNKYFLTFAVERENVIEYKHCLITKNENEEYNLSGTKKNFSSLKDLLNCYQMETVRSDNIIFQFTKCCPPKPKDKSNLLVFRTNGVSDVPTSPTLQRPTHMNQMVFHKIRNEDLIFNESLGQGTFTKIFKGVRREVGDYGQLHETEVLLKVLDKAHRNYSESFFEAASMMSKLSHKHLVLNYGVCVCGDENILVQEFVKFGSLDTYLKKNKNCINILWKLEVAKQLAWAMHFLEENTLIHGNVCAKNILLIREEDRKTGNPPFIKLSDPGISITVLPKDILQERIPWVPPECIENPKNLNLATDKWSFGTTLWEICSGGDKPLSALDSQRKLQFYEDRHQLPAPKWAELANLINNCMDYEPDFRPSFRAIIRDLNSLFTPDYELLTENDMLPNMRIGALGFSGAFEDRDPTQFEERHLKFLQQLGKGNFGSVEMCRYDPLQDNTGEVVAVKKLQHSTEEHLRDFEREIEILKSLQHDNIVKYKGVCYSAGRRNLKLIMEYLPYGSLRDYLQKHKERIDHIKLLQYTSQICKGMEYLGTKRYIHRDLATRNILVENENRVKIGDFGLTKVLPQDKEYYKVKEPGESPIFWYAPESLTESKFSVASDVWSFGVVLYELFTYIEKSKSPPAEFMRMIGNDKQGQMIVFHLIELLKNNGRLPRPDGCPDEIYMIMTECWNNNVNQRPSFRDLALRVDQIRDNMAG
Sequence of Fes (P07332 whole entry, looked up, the tested form may be a part): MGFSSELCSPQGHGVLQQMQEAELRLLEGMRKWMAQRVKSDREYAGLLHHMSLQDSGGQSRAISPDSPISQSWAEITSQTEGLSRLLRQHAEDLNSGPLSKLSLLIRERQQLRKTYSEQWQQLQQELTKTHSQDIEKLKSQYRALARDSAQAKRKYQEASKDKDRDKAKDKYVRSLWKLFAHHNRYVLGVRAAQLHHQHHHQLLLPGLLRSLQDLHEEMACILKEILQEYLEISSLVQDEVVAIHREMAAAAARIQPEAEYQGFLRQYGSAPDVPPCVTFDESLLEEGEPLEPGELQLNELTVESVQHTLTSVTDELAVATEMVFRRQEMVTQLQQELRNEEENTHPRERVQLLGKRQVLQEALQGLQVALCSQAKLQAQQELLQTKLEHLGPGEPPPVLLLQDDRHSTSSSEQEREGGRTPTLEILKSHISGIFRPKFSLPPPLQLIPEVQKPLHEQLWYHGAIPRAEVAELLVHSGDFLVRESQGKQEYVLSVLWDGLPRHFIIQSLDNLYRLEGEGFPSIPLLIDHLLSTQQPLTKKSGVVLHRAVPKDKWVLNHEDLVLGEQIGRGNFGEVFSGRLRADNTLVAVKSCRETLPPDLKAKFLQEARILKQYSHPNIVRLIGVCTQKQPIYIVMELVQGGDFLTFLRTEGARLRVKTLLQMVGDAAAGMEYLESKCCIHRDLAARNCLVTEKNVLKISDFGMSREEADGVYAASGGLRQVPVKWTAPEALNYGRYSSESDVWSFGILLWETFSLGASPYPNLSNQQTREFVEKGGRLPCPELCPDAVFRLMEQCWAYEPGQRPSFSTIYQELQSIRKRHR
Sequence of Grb2 SH2 (P62993 whole entry, looked up): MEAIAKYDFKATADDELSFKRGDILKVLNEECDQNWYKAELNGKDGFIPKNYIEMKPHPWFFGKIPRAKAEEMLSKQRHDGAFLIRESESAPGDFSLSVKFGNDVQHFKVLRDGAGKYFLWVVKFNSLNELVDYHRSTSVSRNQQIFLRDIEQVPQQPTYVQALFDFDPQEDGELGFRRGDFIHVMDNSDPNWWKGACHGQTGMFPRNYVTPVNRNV

| Sequence | SH2 binding enrichment (SHP2-C SH2) | SH2 binding enrichment (c-Src SH2) | SH2 binding enrichment (Grb2 SH2) | phosphorylation enrichment (MERTK) | phosphorylation enrichment (EPHB1) | phosphorylation enrichment (Jak2) | phosphorylation enrichment (c-Src) | phosphorylation enrichment (FGFR1) | phosphorylation enrichment (c-Abl (mouse)) | phosphorylation enrichment (Hck) | phosphorylation enrichment (AncSZ) | phosphorylation enrichment (EPHB2) | phosphorylation enrichment (FGFR3) | phosphorylation enrichment (Fer (mouse)) | phosphorylation enrichment (Fyn) | phosphorylation enrichment (Fes) |
| --- | --- | --- | --- | --- | --- | --- | --- | --- | --- | --- | --- | --- | --- | --- | --- | --- |
| DKMEAYNINET [TEKT4_Y210_D213N] | 0.665 | 0.444 | 0.951 | 0.492 | 0.488 | 1.13 | 0.577 | 0.481 | 0.808 | 0.535 | 1.09 | 0.535 | 0.663 | 0.489 | 0.505 | 1.27 |
| VNFDDYTVNLG [GFPT1_Y367] | 0.715 | 0.408 | 0.651 | 0.487 | 0.787 | 1.39 | 1.19 | 0.705 | 0.69 | 0.528 | 1.39 | 0.691 | 0.741 | 0.493 | 0.833 | 1.2 |
| VGTKRYMAPDV [ACVRL1_Y375_E379D] | 0.522 | 0.496 | 0.573 | 0.277 | 0.42 | 0.415 | 0.293 | 0.296 | 0.494 | 0.334 | 0.424 | 0.402 | 0.412 | 0.35 | 0.306 | 0.491 |
| HHTDEYEYDEL [TGM1_Y134] | 0.749 | 0.584 | 0.906 | 0.687 | 1.02 | 1.19 | 0.916 | 1.02 | 1.08 | 0.943 | 2.01 | 0.904 | 1.05 | 0.958 | 1.01 | 1.59 |
| QEITTYRRLLE [KRT14_Y415_A413T] | 0.598 | 0.493 | 0.915 | 0.416 | 0.619 | 1.07 | 0.649 | 0.657 | 0.815 | 0.542 | 1.03 | 0.548 | 0.78 | 0.505 | 0.708 | 1.11 |
| NSIGNYFKPWF [DHCR24_Y299_YF] | 5.38 | 0.899 | 1.05 | 4.54 | 8.66 | 7.86 | 0.458 | 1.64 | 8.06 | 0.492 | 1.03 | 5.26 | 1.41 | 0.424 | 0.45 | 0.99 |
| IDAICYFRMEN [NPHS2_Y194_YF] | 0.89 | 0.703 | 0.673 | 0.556 | 0.692 | 2.44 | 0.613 | 0.656 | 0.974 | 0.612 | 1.26 | 0.623 | 0.949 | 0.484 | 0.572 | 1.59 |
| INNIDYYKNTT [FGFR2_Y656_K659N] | 0.793 | 0.662 | 1.22 | 0.428 | 0.392 | 0.59 | 0.378 | 0.535 | 0.574 | 0.462 | 0.724 | 0.451 | 0.538 | 0.359 | 0.495 | 0.708 |
| DRLASYLEKVR [KRT13_Y118] | 0.676 | 0.423 | 0.93 | 0.424 | 0.372 | 0.616 | 0.412 | 0.393 | 0.451 | 0.375 | 0.736 | 0.399 | 0.384 | 0.424 | 0.366 | 0.677 |
| FFVVEYRDQKP [MUC17_Y4332_YF] | 1.55 | 0.861 | 1.6 | 0.374 | 0.657 | 1.03 | 0.566 | 0.612 | 0.617 | 0.515 | 1.05 | 0.647 | 0.803 | 0.53 | 0.474 | 1.27 |
| YGEYRYRSVIK [CFTR_Y517_D513G] | 0.819 | 0.817 | 0.769 | 0.463 | 0.458 | 0.599 | 4.36 | 0.454 | 0.745 | 3.67 | 0.714 | 0.462 | 0.644 | 0.49 | 7.2 | 0.826 |
| GRLGEYDIDEV [SMS_Y134_V132G] | 0.484 | 0.555 | 0.649 | 0.494 | 0.909 | 1.27 | 0.643 | 0.551 | 0.881 | 0.647 | 1.3 | 0.859 | 1 | 0.688 | 0.789 | 1.45 |
| SRDPFYEMLAA [CYTH1_Y382] | 0.748 | 2.44 | 0.957 | 7.89 | 3.5 | 0.729 | 2.96 | 5.1 | 0.681 | 4.88 | 1.21 | 1.71 | 3.2 | 12.4 | 2.55 | 1.26 |
| TYEPNYGTVKR [RAPGEF6_Y1447_Q1452R] | 0.785 | 0.589 | 0.803 | 0.868 | 1.34 | 0.604 | 3.06 | 0.391 | 0.656 | 3.66 | 0.567 | 3.31 | 0.43 | 1.65 | 4.41 | 0.614 |
| KINKMYSDRAM | 0.639 | 0.418 | 0.632 | 0.423 | 0.311 | 0.419 | 0.345 | 0.417 | 0.467 | 0.396 | 0.53 | 0.377 | 0.371 | 0.336 | 0.361 | 0.624 |
